Results reported in US20170233485A1 (Biogen, published 2017).
Values joined by “and” are separate entries in the source; they are usually repeats but may differ in a detail not shown here. Equal entries are not always repeated.

T1: mouse CD40 (cell surface) (mouse, UniProt P27512 20-289)
T1 construct: whole, on cells; also called murine CD40
T1 sequence (looked up): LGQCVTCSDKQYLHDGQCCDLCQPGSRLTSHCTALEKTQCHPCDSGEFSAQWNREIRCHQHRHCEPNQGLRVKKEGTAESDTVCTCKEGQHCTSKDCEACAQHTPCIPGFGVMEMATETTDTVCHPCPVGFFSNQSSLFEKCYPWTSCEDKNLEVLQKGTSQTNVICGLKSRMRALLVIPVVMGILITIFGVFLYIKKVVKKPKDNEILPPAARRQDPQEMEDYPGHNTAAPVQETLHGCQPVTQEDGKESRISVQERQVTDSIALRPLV

T2: human FcγR CD32a R131-GST fusion protein (human, UniProt P12318 34-217, limits assumed)
T2 construct: FcγR-GST fusion protein on anti-GST acceptor beads; also called FcγRIIa; not shown: GST
T2 sequence (looked up): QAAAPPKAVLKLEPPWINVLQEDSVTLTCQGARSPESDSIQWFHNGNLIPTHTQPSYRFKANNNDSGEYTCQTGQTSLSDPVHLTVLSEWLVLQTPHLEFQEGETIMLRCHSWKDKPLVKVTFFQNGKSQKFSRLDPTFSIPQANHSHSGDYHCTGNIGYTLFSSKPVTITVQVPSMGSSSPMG

T3: human FcγR CD32b-GST fusion protein (human, UniProt P31994 43-217, limits assumed)
T3 construct: FcγR-GST fusion protein on anti-GST acceptor beads; also called FcγRIIB; not shown: GST
T3 sequence (looked up): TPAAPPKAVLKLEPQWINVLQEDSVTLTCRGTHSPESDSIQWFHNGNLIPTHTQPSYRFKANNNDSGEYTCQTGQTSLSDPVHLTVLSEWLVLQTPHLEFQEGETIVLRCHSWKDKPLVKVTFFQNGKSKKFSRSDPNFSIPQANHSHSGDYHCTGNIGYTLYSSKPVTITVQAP

B1: Agly hAKH3 IgG4P/IgG1 (antibody, V domains shown)
VH: EVQLVQSGAEVKKPGASVKVSCKASGYTFTTFPIEWVRQAPGQGLEWMGNFHPYNDDTKYNEKFKGRVTLTADKSTSTAYMELSRLRSEDTAVYYCARRGKLPFDSWGQGTTVTVSS
VL: DIQMTQSPSSLSASVGDRVTISCRASQDISNYLNWYQQKPGKVPKLLIYFTSRLRSGVPSRFSGSGSGTDYTLTISSLQPEDVATYYCQQDRKLPWTFGQGTKLEIK
B2: Exemplary Anti-CD40 Antibody 1 (antibody, human IgG4 S228P, kappa)
heavy: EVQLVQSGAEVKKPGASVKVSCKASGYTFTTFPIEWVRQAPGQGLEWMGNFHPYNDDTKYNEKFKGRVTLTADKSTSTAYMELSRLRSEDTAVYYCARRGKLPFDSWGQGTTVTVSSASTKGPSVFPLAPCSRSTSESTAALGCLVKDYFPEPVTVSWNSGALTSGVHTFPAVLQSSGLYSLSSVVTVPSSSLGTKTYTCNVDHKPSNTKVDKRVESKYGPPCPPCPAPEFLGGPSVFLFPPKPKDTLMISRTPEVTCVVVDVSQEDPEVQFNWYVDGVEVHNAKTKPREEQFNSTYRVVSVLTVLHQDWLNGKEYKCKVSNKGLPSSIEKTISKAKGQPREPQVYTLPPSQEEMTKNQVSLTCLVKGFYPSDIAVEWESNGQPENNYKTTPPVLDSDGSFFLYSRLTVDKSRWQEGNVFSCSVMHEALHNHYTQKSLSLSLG
light: DIQMTQSPSSLSASVGDRVTISCRASQDISNYLNWYQQKPGKVPKLLIYFTSRLRSGVPSRFSGSGSGTDYTLTISSLQPEDVATYYCQQDRKLPWTFGQGTKLEIKRTVAAPSVFIFPPSDEQLKSGTASVVCLLNNFYPREAKVQWKVDNALQSGNSQESVTEQDSKDSTYSLSSTLTLSKADYEKHKVYACEVTHQGLSSPVTKSFNRGEC
modifications: Alexa647 conjugate in some whole-blood assays; N-linked glycan on the heavy chain; neither is carried by the letters.
notes: Humanized IgG4/kappa with S228P (Kabat); also called hAKH3 IgG4P; AKH3 IgG4P; copies: 2 + 2

Experiments:
[1] = target: T4, human CD40 (cell surface) (human, UniProt P25942 20-277); experiment: cell-based or functional assay
[2] = target: T4, human CD40 (cell surface); experiment: FACS, A647-conjugated mAb on primary B cells in human whole blood
[3] = target: T1, mouse CD40 (cell surface); experiment: flow cytometry on 293E transfected cells
[4] = target: T5, human C1q (human, UniProt P02745 23-245; P02746 28-253; P02747 29-245); experiment: ELISA, titrated antibody coated, human C1q detected
T5 construct: the three subunits are from general knowledge; also called Complement protein C1q
Method: It was also determined that Exemplary Anti-CD40 Antibody 1 is not capable of activating complement by testing its binding to C1q. The assay (adapted from Idusogie et al., J. Immunol., 164:4178-84 (2000)) was conducted in an ELISA format where titrations of the test antibodies are coated in the wells and binding of human C1q is detected with chicken IgY anti-human C1q (custom reagent from Ayes Labs) followed by a donkey F(ab′) 2 anti-chicken IgY HRP conjugate.

[5] = target: T6, human CD40 H78Q, full length, on 293E cells (human, UniProt P25942 20-277); experiment: binding to CD40 SNP variants expressed on 293E cells (data not shown)
T6 construct: also called CN916
From the text: The prevalence of these SNPs is quite rare, believed to be at or below the 3% range. Exemplary Anti-CD40 Antibody 1 bound to 6 of the CD40 proteins encoded by DNA sequences containing SNPs comparably to WT CD40, but more weakly to H78Q and R90W (reduced plateau) and not quantifiably to C77F (data not shown).

[6] = target: T7, human FcγR CD16a V158-GST fusion protein (human, UniProt P08637 17-208, limits assumed); experiment: ALPHAscreen competition: test antibody displaces biotinylated IgG1 from FcγR-GST
T7 construct: FcγR-GST fusion protein on anti-GST acceptor beads; also called FcγRIIIA; not shown: GST
Method: (§1) In order to confirm the expected reduced binding profile of Exemplary Anti-CD40 Antibody 1 to human FcγR, relative binding affinities were measured using Amplified Luminescent Proximity Homogeneous Assay (ALPHAscreen) technology from Perkin Elmer. With this technology, binding pairs are immobilized onto “donor” and “acceptor” beads. Upon laser excitation, donor beads release singlet oxygen that reacts with acceptor beads in close proximity (≦200 nm) generating a cascade of events that ultimately results in fluorescence emission at 520-620 nm.
(§2) The chimeric AKH3 antibody constructs with the human IgG1 and aglycosyl IgG4P/G1 Fc regions were included in the FcγR and C1q assays as Fc competent and Fc-effectorless comparators, respectively. The assay was performed in a competitive format in which binding of test antibodies to FcγR disrupts the interaction of biotinylated IgG1 and FcγR-GST fusion protein immobilized on Streptavidin donor beads and anti-GST acceptor beads respectively. The plates were read using an Envision plate reader (Perkin Elmer) and the resulting relative fluorescence units (RFU) were plotted versus the concentration of test IgG as shown in FIG. 26.

[7] = target: T2, human FcγR CD32a R131-GST fusion protein; experiment: as above
Method: as §1, §2

[8] = target: T3, human FcγR CD32b-GST fusion protein; experiment: as above
Method: as §1, §2

[9] = target: T8, human FcγR CD64-GST fusion protein (human, UniProt P12314 16-292, limits assumed); experiment: as above
T8 construct: FcγR-GST fusion protein on anti-GST acceptor beads; also called FcγRI; not shown: GST
Method: as §1, §2

T4 sequence (P25942 20-277 limits assumed): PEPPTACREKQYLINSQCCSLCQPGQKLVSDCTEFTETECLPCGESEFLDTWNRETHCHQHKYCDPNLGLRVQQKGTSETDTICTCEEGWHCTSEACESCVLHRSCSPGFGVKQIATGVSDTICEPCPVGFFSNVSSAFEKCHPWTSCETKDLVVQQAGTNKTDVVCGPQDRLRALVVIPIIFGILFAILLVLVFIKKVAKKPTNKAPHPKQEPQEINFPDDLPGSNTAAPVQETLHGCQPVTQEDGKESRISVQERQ
T5 sequence (P02745 23-245 limits assumed, chain 1 of 3): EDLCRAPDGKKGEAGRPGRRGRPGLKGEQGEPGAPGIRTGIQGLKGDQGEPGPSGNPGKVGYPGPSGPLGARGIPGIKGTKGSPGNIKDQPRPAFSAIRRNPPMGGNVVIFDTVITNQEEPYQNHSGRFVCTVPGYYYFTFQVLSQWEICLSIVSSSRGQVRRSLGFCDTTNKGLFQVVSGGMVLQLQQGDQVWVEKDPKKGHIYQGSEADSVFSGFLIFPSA
T5 sequence (P02746 28-253 limits assumed, chain 2 of 3): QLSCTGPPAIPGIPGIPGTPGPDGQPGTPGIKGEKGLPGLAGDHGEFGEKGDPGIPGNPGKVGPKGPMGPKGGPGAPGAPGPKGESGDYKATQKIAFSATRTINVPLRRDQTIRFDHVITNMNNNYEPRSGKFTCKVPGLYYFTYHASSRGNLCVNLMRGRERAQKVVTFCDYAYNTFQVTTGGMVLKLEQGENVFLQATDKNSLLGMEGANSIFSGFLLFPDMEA
T5 sequence (P02747 29-245 limits assumed, chain 3 of 3): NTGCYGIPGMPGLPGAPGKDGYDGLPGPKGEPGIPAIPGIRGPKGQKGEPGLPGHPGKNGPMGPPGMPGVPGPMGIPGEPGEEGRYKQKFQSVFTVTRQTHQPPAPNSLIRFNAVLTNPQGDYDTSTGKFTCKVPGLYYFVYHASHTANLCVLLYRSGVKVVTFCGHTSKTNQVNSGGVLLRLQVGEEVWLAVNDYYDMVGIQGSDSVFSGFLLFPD
T8 sequence (P12314 16-292 limits assumed): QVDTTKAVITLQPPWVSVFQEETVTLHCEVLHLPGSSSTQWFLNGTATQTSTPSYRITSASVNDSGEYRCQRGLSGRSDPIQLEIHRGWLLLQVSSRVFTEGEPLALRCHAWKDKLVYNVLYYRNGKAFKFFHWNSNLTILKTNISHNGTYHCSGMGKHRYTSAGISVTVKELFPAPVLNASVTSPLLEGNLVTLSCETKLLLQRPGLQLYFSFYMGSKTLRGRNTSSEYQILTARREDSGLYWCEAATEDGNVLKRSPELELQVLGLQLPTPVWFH
T7 sequence (P08637 17-208 F176V limits assumed): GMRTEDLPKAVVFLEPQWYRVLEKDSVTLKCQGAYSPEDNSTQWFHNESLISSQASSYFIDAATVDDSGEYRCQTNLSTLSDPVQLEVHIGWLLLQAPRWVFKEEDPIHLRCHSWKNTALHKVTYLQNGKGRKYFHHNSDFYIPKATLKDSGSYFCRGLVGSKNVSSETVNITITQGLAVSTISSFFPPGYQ
T6 sequence (P25942 20-277 H78Q limits assumed): as the sequence (P25942 20-277 limits assumed) above, with H59Q counted along it

Binder | IC50, inhibition of CD40L+ Jurkat (D1.1) T cell stimulation of primary human B cells (ICAM-1/CD54 up-regulation, flow cytometry), five normal donors [1] | EC50 [2] | binding result [3] | binding result [4] | binding result [5] | fold reduction of binding against WT IgG1 (chAKH3 IgG1) [6] | fold reduction of binding against WT IgG1 (chAKH3 IgG1) [7] | fold reduction of binding against WT IgG1 (chAKH3 IgG1) [8] | fold reduction of binding against WT IgG1 (chAKH3 IgG1) [9]
B1 | 11 ng/mL and 0.07 nM | 0.5 nM | – | – | – | – | – | – | –
B2 | – | – | no binding | no binding | binds | ~200 fold | ~5 fold | ~5 fold | ~150 fold
